{"source": "patent US9957308B2", "about": "“Method for detecting bilirubin using a fluorescent protein” (RIKEN, priority 2013, dated 2018)", "key": {"[1]": {"assay": "Measurement of fluorescence spectrum, absorption spectrum, quantum yield and fluorescence lifetime", "type": "physicochemical", "experimental": "In order to analyze the fluorescent properties of UnaG protein, the fluorescence spectrum, absorption spectrum, and quantum yield were measured. The excitation spectrum and the fluorescence spectrum were measured with a spectrophotofluorometer, RF-5300PC (Shimadzu Corporation), at an excitation wavelength of 475 nm and a fluorescence wavelength of 550 nm. The absorption spectrum was measured with a spectrophotometer, U-2900 (Hitachi High-Technologies Corporation). The quantum yield was measured with an absolute quantum yield measurement system, Quantaurus-QY (Hamamatsu Photonics K.K.) at excitation wavelengths of 470 nm and 480 nm. A known fluorescent protein, EGFP, was similarly measured, and the values were compared to those of UnaG protein.\nIn order to analyze the fluorescent properties of R82EK84E mutant, the fluorescence spectrum, absorption spectrum, and quantum yield were measured. The measurement was performed by the same method as that described in the above-described paragraph 3. The fluorescence lifetime was measured with a small-sized fluorescence lifetime measurement system, Quantaurus-Tau (Hamamatsu Photonics K.K.) and was compared to that of wild-type UnaG protein.\nThe fluorescence spectrum, absorption spectrum, and quantum yield (excitation wavelength: 470 nm) were measured for analyzing the fluorescent properties of holo A12ES80N mutant protein. The measurement was performed by the same method as that described in paragraph 3, above. The fluorescent properties were compared to those of wild-type UnaG protein."}, "[2]": {"assay": "Detection of unconjugated bilirubin in human serum by apo UnaG fluorescence", "conditions": "apo UnaG added to 200-fold diluted human serum, room temperature, 527 nm", "experimental": "Blood (5 mL) was collected in a vacuum sealed blood collection tube (Neo-Tube, NIPRO) from a vein of the arm using a needle of 23G (Terumo Corporation) and a 5-mL cylinder (Terumo Corporation). The collected blood was shielded from light and was left to stand at room temperature for 30 min and was then centrifuged at a rotation speed of 3,000 rpm for 20 min (KUBOTA K-80) to collect about 2.5 mL of serum. The collected serum was cooled with ice while being shielded from light and was promptly subjected to measurement of bilirubin.\nApo UnaG was added to the serum diluted with PBS by 200-fold so as to give a final concentration of 0.5 μM, and 200 μL of the mixture was added to each well of a 96-well microplate (black, non-binding, Greiner Bio-One). Measurement of fluorescence was started immediately after the addition of samples to the plate. The fluorescence intensity was measured at room temperature at every 10 min for 1 hr at a fluorescence wavelength of 527 nm (excitation wavelength: 497 nm) using EnSpire (trademark) multi-mode plate reader (PerkinElmer Co., Ltd.). Each serum was measured using three wells, and the serum not mixed with apo UnaG protein was also measured as background. The net fluorescence intensity was determined by subtracting the intensity level of the background from the intensity level of the serum mixed with apo UnaG protein. […]"}, "[3]": {"assay": "Evaluation of aggregability of protein by dynamic light scattering particle diameter", "type": "physicochemical", "conditions": "wild-type 10 mg/mL, R82EK84E mutant 8.5 mg/mL", "experimental": "Protein solutions (each 20 μL) of wild-type UnaG protein (10 mg/mL) and R82EK84E mutated UnaG protein (8.5 mg/mL) were each supplied to Microtrac particle size analyzer MT3000II (Nikkiso Co., Ltd.), and the particle diameters were measured by a dynamic light scattering. The aggregability was evaluated by plotting frequency against particle diameter."}, "[4]": {"conditions": "Table 3, wild-type vs R82EK84E mutant"}, "[5]": {"conditions": "Table 3, wild-type vs R82EK84E mutant, holo form reconstructed with bilirubin"}, "[6]": {"conditions": "Table 4, wild-type vs holo A12ES80N mutant"}}}
{"molecule": "UnaG: fluorescent polypeptide including the amino acid sequence of SEQ ID NO: 1, originally isolated from Japanese eel; fluoresces in the presence of bilirubin (protein, listed as Anguilla japonica) MVEKFVGTWKIADSHNFGEYLKAIGAPKELSDGGDATTPTLYISQKDGDKMTVKIENGPPTFLDTQVKFKLGEEFDEFPSDRRKGVKSVVNLVGEKLVYVQKWDGKETTYVREIKDGKLVVTLTMGDVVAVRSYRRATE", "values": [{"measurement": "Maximum excitation wavelength", "setting": "[1]; Table 2, UnaG compared to EGFP", "value": 498, "unit": "nm"}, {"measurement": "Maximum fluorescence wavelength", "setting": "[1]; Table 2, UnaG compared to EGFP", "value": 527, "unit": "nm"}, {"measurement": "Brightness", "setting": "[1]; Table 2, [(Molar extinction coefficient) × (Quantum yield)]/1,000", "value": 39.4}, {"measurement": "Molar extinction coefficient", "setting": "[1]; Table 2, at the maximum excitation wavelength (498 nm UnaG, 490 nm EGFP)", "value": "77,300 (498 nm) M^−1 cm^−1"}, {"measurement": "Quantum yield", "setting": "[1]; Table 2, excitation wavelengths 470 nm and 480 nm", "value": 51, "unit": "%"}, {"measurement": "Molar extinction coefficient", "setting": "[1]; [4]", "value": "56,992 M^−1 cm^−1"}, {"measurement": "Quantum yield", "setting": "[1]; [4]", "value": 51, "unit": "%"}, {"measurement": "Maximum excitation wavelength", "setting": "[1]; [5]", "value": 498, "unit": "nm"}, {"measurement": "Maximum fluorescence wavelength", "setting": "[1]; [5]", "value": 527, "unit": "nm"}, {"measurement": "Fluorescence lifetime (τ1/ns)", "setting": "[1]; Table 3, wild-type vs R82EK84E mutant, Quantaurus-Tau", "value": 2.2, "unit": "ns"}, {"measurement": "Maximum excitation wavelength", "setting": "[1]; [6]", "value": 499, "unit": "nm"}, {"measurement": "Maximum fluorescence wavelength", "setting": "[1]; [6]", "value": 527, "unit": "nm"}, {"measurement": "Molar extinction coefficient", "setting": "[1]; [6]", "value": "52,687 M^−1 cm^−1"}, {"measurement": "Quantum yield", "setting": "[1]; Table 4, excitation wavelength 470 nm", "value": 53.2, "unit": "%"}, {"measurement": "Fluorescence lifetime", "setting": "[1]; main fluorescent properties of UnaG", "value": 2.2, "unit": "nanosecond"}, {"measurement": "time stable fluorescence lasts", "setting": "[2]", "value": "≥ 1", "unit": "h"}, {"measurement": "time until stable fluorescence is generated", "setting": "[2]", "value": "about 10 min"}, {"measurement": "particle diameter distribution (peaks)", "setting": "[3]", "value": "two peaks of different particle diameter distribution ranges"}]}
